The target in data set [1] is NPT7 v443 with NLS removed (synthetic construct). Description: cell_activity; ZsGreen reporter in HEK293T, 48 h, cytoplasmic. As to conditions: tags: NLS removed.
Another data set addresses NPT7 variant ES-443 (V3) (synthetic construct). In words: cell_activity; ZsGreen reporter fluorescence in S. cerevisiae; reflects transcription and capping. Particulars: tags: SV40 NLS N-terminal.

B1: T7 promoter WT (dsDNA)
DNA 1: TAATACGACTCACTATA
DNA 2: TATAGTGAGTCGTATTA
For B1, the binding signal in data set [1] was ~1.8 fold vs WT NPT7; with NPT7 variant ES-443 (V3), 76 fold vs K282A control.

The values above are taken from patent publication US20250283060 (BOARD OF REGENTS, THE UNIVERSITY OF TEXAS SYSTEM, published 2025).
